B1: SEQ ID NO: 326 (peptide)
peptide: IEGNYWFWQQVGQENTLSREWIQTLGQKYWYRPPSICAQIEGWSRHQHYSAMSGHS
B2: Fc-Loop (Asym) (SEQ ID NO: 9) (Fc fusion)
chain: MDKTHTCPPCPAPELLGGPSVFLFPPKPKDTLMISRTPEVTCVVVDVSHEDPEVKFNWYVDGVEVHNAKTKPREEQYNSTYRVVSVLTVLHQDWLNGKEYKCKVSNKALPAPIEKTISKAKGQPREPQVYTLPPSRDELGGGGQGCSSGGPTLREWQQCRRMQHSGGTKNQVSLTCLVKGFYPSDIAVEWESNGQPENNYKTTPPVLDSDGSFFLYSKLTVDKSRWQQGNVFSCSVMHEALHNHYTQKSLSLSPGK
B3: Fc-Loop (Sym) (SEQ ID NO: 9) (Fc fusion)
chain: MDKTHTCPPCPAPELLGGPSVFLFPPKPKDTLMISRTPEVTCVVVDVSHEDPEVKFNWYVDGVEVHNAKTKPREEQYNSTYRVVSVLTVLHQDWLNGKEYKCKVSNKALPAPIEKTISKAKGQPREPQVYTLPPSRDELGGQGCSSGGPTLREWQQCRRMQHSGGTKNQVSLTCLVKGFYPSDIAVEWESNGQPENNYKTTPPVLDSDGSFFLYSKLTVDKSRWQQGNVFSCSVMHEALHNHYTQKSLSLSPGK
B4: Fc-Loop (Asym) (SEQ ID NO: 243) (Fc fusion)
chain: MDKTHTCPPCPAPELLGGPSVFLFPPKPKDTLMISRTPEVTCVVVDVSHEDPEVKFNWYVDGVEVHNAKTKPREEQYNSTYRVVSVLTVLHQDWLNGKEYKCKVSNKALPAPIEKTISKAKGQPREPQVYTLPPSRDELGGGGQGCSSGGPTLREWQQCVRMQHSGGTKNQVSLTCLVKGFYPSDIAVEWESNGQPENNYKTTPPVLDSDGSFFLYSKLTVDKSRWQQGNVFSCSVMHEALHNHYTQKSLSLSPGK
B5: Fc-Loop (Sym) (SEQ ID NO: 243) (Fc fusion)
chain: MDKTHTCPPCPAPELLGGPSVFLFPPKPKDTLMISRTPEVTCVVVDVSHEDPEVKFNWYVDGVEVHNAKTKPREEQYNSTYRVVSVLTVLHQDWLNGKEYKCKVSNKALPAPIEKTISKAKGQPREPQVYTLPPSRDELGGQGCSSGGPTLREWQQCVRMQHSGGTKNQVSLTCLVKGFYPSDIAVEWESNGQPENNYKTTPPVLDSDGSFFLYSKLTVDKSRWQQGNVFSCSVMHEALHNHYTQKSLSLSPGK
B6: Fc-Loop (Sym)(SEQ ID NO: 244) (Fc fusion)
chain: MDKTHTCPPCPAPELLGGPSVFLFPPKPKDTLMISRTPEVTCVVVDVSHEDPEVKFNWYVDGVEVHNAKTKPREEQYNSTYRVVSVLTVLHQDWLNGKEYKCKVSNKALPAPIEKTISKAKGQPREPQVYTLPPSRDELGGQGCSSGGPTLREWQQCRRAQHSGGTKNQVSLTCLVKGFYPSDIAVEWESNGQPENNYKTTPPVLDSDGSFFLYSKLTVDKSRWQQGNVFSCSVMHEALHNHYTQKSLSLSPGK

target: T1, c-mpl receptor (Homo sapiens (Human), UniProt P40238 26-491, The MPL used for panning was biotinylated; the biotin site is not stated and is not carried by the letters.); test: phage-ELISA
T1 construct: also called TPO receptor
T1 sequence: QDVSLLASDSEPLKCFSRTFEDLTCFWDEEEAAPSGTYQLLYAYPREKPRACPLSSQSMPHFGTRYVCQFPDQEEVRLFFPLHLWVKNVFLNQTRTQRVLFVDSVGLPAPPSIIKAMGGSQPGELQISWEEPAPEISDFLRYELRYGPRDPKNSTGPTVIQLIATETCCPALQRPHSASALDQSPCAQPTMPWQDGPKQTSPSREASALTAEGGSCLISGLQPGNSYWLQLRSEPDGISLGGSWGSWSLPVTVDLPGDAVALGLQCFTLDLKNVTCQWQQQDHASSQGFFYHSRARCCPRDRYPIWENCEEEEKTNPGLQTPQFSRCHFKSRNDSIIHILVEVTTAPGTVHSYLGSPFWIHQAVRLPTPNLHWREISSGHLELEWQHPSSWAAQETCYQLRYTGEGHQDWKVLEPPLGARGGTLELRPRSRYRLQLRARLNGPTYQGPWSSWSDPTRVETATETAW

Compared with IEGEALVFWWRVRGGHS [SEQ ID NO: 294], IEGWTWQFYALPRGDHS [SEQ ID NO: 297] is lower in Relative activity: 73.9 for the first, 63.2 for the second.

Going from IEGRHYQKWPARRLGHS [SEQ ID NO: 302] to IEGFVGTVDWRQGRPHS [SEQ ID NO: 303], the Relative activity falls from 52 to 49.8.

Going from IEGQEPTRLRLQMDRHS [SEQ ID NO: 304] to IAQVRMLGRFTLLVLSRARAASTQLSFQHSICAQIEGGAQTQWDAARA [SEQ ID NO: 305], the Relative activity falls from 48.3 to 47.4.

First: IEGEIWAGPGAARA [SEQ ID NO: 306]
Second: IEGEALVFWWAARA [SEQ ID NO: 307]
The Relative activity of the first is higher: 46.5 for the first, 40.3 for the second.

First: IEGSYRERQQAARA [SEQ ID NO: 308]
Second: IEGWNPWRGAASRV [SEQ ID NO: 310]
The Relative activity of the first is higher: 35.2 for the first, 33.9 for the second.

First: IEGWTRRQWLAARA [SEQ ID NO: 311]
Second: IEGPTFKQWQAMRRHS [SEQ ID NO: 313]
The Relative activity of the first is higher: 33.3 for the first, 28.4 for the second.

First: IEGMVKLGVIRLLVL [SEQ ID NO: 314]
Second: IEGPTFKQWQAWRRWHS [SEQ ID NO: 315]
The Relative activity of the first is higher: 28.3 for the first, 28.1 for the second.

Going from IEVWQSHWYQAARALESTSSRLLPMRPPPSICAQIEGPTLPQRMAARA [SEQ ID NO: 316] to IEGPTFKQWQALRKRHS [SEQ ID NO: 318], the Relative activity falls from 24.9 to 21.6.

First: IEGPTFKQWQKLRLGHS [SEQ ID NO: 319]
Second: IEGPTFKQWQLMGFPHS [SEQ ID NO: 320]
The Relative activity of the first is higher: 17.9 for the first, 17.8 for the second.

IEGWIWRQWLMQTLWHS [SEQ ID NO: 321] and IEGPTFKQWQAMRKNHS [SEQ ID NO: 322] are the same in Relative activity: 16.4 for the first, 16.4 for the second.

Going from IEGPTFKQWQKWRLSHS [SEQ ID NO: 323] to IEGWQEGRQSAARA [SEQ ID NO: 324], the Relative activity falls from 14.7 to 13.8.

Compared with IEGPTFKQWQRWLKYHS [SEQ ID NO: 325], B1 is lower in Relative activity: 13.5 for the first, 13.2 for the second.

First: IEGPTFKQWQLWRLQHS [SEQ ID NO: 327]
Second: IEGPTFKQWQRLRKNHS [SEQ ID NO: 329]
The Relative activity of the first is higher: 12.6 for the first, 12.1 for the second.

Compared with IEGLLSQLWQAARA [SEQ ID NO: 330], IEGPSLPEWLHVWRHHS [SEQ ID NO: 331] is higher in Relative activity: 7.11 for the first, 117 for the second.

Compared with IEGPTLHEWLAERRKHS [SEQ ID NO: 332], IEGPTLHEWLALLRSHS [SEQ ID NO: 333] is lower in Relative activity: 88.4 for the first, 80.7 for the second.

First: IEGPTLHEWLAQRREHS [SEQ ID NO: 334]
Second: IEGPTLHEWLLYRRAHS [SEQ ID NO: 335]
The Relative activity of the first is higher: 75.9 for the first, 73.7 for the second.

With IEGPTLHEWLRQRRQHS [SEQ ID NO: 336] the Relative activity was 64.5.

target: T2, human mpl receptor (human, UniProt P40238 26-635); test: cell-based or functional assay
T2 sequence (looked up): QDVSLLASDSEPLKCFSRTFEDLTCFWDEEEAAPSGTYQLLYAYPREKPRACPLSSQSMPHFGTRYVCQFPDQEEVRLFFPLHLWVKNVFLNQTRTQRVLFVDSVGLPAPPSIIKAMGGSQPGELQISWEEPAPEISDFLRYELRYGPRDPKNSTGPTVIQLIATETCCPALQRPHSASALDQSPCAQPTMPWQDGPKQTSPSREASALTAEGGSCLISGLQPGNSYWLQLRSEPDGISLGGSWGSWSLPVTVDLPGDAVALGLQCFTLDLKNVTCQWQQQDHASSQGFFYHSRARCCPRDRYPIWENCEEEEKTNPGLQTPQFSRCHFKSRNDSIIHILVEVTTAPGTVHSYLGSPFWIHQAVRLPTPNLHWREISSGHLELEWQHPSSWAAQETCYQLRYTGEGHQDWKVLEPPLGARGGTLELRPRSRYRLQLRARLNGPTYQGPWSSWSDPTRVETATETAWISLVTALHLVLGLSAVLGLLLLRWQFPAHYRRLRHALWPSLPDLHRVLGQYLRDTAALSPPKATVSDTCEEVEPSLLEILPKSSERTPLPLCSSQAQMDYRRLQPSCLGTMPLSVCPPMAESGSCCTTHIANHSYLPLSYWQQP

B2 and B3 are within 1.5-fold of each other in “In vitro EC50” value: 0.0127 nM for the first, 0.0137 nM for the second.

Compared with B4, B5 is 1.7-fold higher in “In vitro EC50” value: 0.0057 nM for the first, 0.0099 nM for the second.

target: T2, human mpl receptor; test: cell-based or functional assay; remark: another data set of the same source

B2 and B3 are within 1.5-fold of each other in “EC50 on 32Dc123/Mpl” value: 0.013 nM for the first, 0.015 nM for the second.

First: B4
Second: B5
The “EC50 on 32Dc123/Mpl” value of the first is 1.7-fold lower: 0.006 nM for the first, 0.01 nM for the second.

With B6 the “EC50 on 32Dc123/Mpl” value was 0.012 nM.

Source: patent publication US20110275122A1 (Amgen, published 2011)
